Laboratory results: patent US20110021367A1 (INDIAN INSTITUTE OF SCIENCE, published 2011)

B1: holo-RslA 1-108 (Zn2+ bound N-terminal cytosolic domain of M. tuberculosis anti-σ^L factor RslA), N-term His-tag (other)
chain: MTMPLRGLGPPDDTGVREVSTGDDHHYAMWDAAYVLGALSAADRREFEAHLAGCPECRGAVTELCGVPALLSQLDRDEVAAISESAPTVVASGLSPELLPSLLAAVHR
modifications: Zn2+ bound in 1:1 stoichiometry (holo, reduced; three free cysteines)
notes: range 1-108; Immobilized on a CM5 chip for SPR; Self-associates into dimers and tetramers in solution; also called Mtb RslA; Rsl1A 1-108; not shown: N-terminal His-tag from pET-Duet1 MCS1

Key:
[1] = target: the molecule itself; experiment: analytical gel filtration; dynamic light scattering
[2] = target: T1, σ^L 1-177 (Mycobacterium tuberculosis sigma factor L, Rv0735), N-term His-tag (Mycobacterium tuberculosis, UniProt P9WGH5 1-177); experiment: SPR (BIACORE 2000), RslA immobilized on CM5 chip, σ^L as analyte
T1 construct: range 1-177; also called SigL; Mtb σ^L; not shown: N-terminal His-tag from pET-Duet1 MCS1
T1 sequence: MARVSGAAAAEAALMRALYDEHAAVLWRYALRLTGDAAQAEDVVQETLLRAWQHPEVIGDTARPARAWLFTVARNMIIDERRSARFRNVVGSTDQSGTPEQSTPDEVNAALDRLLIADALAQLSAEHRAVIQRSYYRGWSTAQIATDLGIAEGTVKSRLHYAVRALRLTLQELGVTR

[3] = target: B1; experiment: SPR (BIACORE 2000), RslA immobilized on CM5 chip, σ^L2 as analyte

Binder	binding result [1]	Kd [2] [nM]	Kd [3] [nM]	fold reduction in affinity against intact σ^L [3] [fold]
B1	binds	~20	–	–
σ^L2 domain of M. tuberculosis σ^L (N-term His-tag σ^L 1-95) (other, range 1-95; not shown: N-terminal His-tag from pET-Duet1 MCS1) MARVSGAAAAEAALMRALYDEHAAVLWRYALRLTGDAAQAEDVVQETLLRAWQHPEVIGDTARPARAWLFTVARNMIIDERRSARFRNVVGSTDQ	–	–	~2000	~100
